For 1 molecule, EC50 results are on record in PMC11452399 (Nature Communications, 2024).

Broadly, the EC50 is the concentration that produces a half-maximal response. A higher EC50 goes with lower potency in that assay.

This assay has as its target human ferritin heavy chain (FTH1) (human, UniProt P02794). Description: ELISA. Background: ELISA stands for enzyme-linked immunosorbent assay.

human ferritin heavy chain (FTH1), sequence (P02794 whole entry): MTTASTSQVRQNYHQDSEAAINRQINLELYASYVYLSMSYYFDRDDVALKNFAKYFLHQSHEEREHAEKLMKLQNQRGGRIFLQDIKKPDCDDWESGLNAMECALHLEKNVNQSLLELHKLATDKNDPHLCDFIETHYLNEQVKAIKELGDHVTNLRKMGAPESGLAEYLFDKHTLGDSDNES

Take DSFQVIKNSPLSEWLI [GST-Peptide WT (NCOA4 484-499)]: the EC50 came to 288 nM.
